Earlier results as cited in publication PMC3831880.

Biological target: HPr (Escherichia coli) (UniProt P0AA04)
Test: PRE titration

Substance: Enzyme I N-terminal domain (EIN) N-terminal domain (from UniProt P08839)
- Kd: 7 µM
